The supplement of paper PMC10567573

B1: CFHR2 (parent)
chain: FVENGHSESSGQTHLEGDTVQIIC

Variants of: B1
Experiment: protein stability index of a GFP-peptide fusion (GPS, HEK-293T) (PSI 1-6); higher = more stable
Settings: c terminus: a fixed tail appended
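Further: lentivirally expressed fusions sorted by FACS into six bins by GFP to DsRed ratio, PSI derived from sequencing read proportions per bin multiplied by bin number.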

| Variant | protein stability index |
| --- | --- |
| FVENGFSESSGQTHLEGDTVQIIC [H6F] | 2.29 |
| FVENGDSESSGQTHLEGDTVQIIC [H6D] | 3.87 |
| FVENGESESSGQTHLEGDTVQIIC [H6E] | 3.65 |
| FVENGMSESSGQTHLEGDTVQIIC [H6M] | 2.32 |
| FVENGGSESSGQTHLEGDTVQIIC [H6G] | 3.12 |
| FVENGASESSGQTHLEGDTVQIIC [H6A] | 3.02 |
| FVENGKSESSGQTHLEGDTVQIIC [H6K] | 3.33 |
| FVENGISESSGQTHLEGDTVQIIC [H6I] | 2.57 |
| FVENGCSESSGQTHLEGDTVQIIC [H6C] | 2.28 |
| FVENGLSESSGQTHLEGDTVQIIC [H6L] | 2.19 |
| FVENGNSESSGQTHLEGDTVQIIC [H6N] | 3.52 |
| FVPNGHSESSGQTHLEGDTVQIIC [E3P] | 2.38 |
| FVKNGHSESSGQTHLEGDTVQIIC [E3K] | 1.78 |
| FVSNGHSESSGQTHLEGDTVQIIC [E3S] | 2.12 |
| FVHNGHSESSGQTHLEGDTVQIIC [E3H] | 2.08 |
| FVDNGHSESSGQTHLEGDTVQIIC [E3D] | 1.74 |
| FVVNGHSESSGQTHLEGDTVQIIC [E3V] | 1.54 |
| FVNNGHSESSGQTHLEGDTVQIIC [E3N] | 1.92 |
| FVMNGHSESSGQTHLEGDTVQIIC [E3M] | 1.5 |
| FVFNGHSESSGQTHLEGDTVQIIC [E3F] | 2.04 |
| FVANGHSESSGQTHLEGDTVQIIC [E3A] | 2.11 |
| FVRNGHSESSGQTHLEGDTVQIIC [E3R] | 1.67 |
| FVLNGHSESSGQTHLEGDTVQIIC [E3L] | 1.81 |
| FVQNGHSESSGQTHLEGDTVQIIC [E3Q] | 1.83 |

| Variant | protein stability index |
| --- | --- |
| FVCNGHSESSGQTHLEGDTVQIIC [E3C] | 1.38 |
| FVWNGHSESSGQTHLEGDTVQIIC [E3W] | 1.56 |
| FVTNGHSESSGQTHLEGDTVQIIC [E3T] | 2.23 |
| FVINGHSESSGQTHLEGDTVQIIC [E3I] | 1.94 |
| FVYNGHSESSGQTHLEGDTVQIIC [E3Y] | 1.98 |
| FVGNGHSESSGQTHLEGDTVQIIC [E3G] | 2.83 |
| FVENIHSESSGQTHLEGDTVQIIC [G5I] | 2.2 |
| FVENMHSESSGQTHLEGDTVQIIC [G5M] | 2.28 |
| FVENWHSESSGQTHLEGDTVQIIC [G5W] | 3.48 |
| FVENTHSESSGQTHLEGDTVQIIC [G5T] | 2.97 |
| FVENKHSESSGQTHLEGDTVQIIC [G5K] | 2.64 |
| FVENHHSESSGQTHLEGDTVQIIC [G5H] | 2.49 |
| FVENFHSESSGQTHLEGDTVQIIC [G5F] | 2.55 |
| FVENEHSESSGQTHLEGDTVQIIC [G5E] | 4.09 |
| FVENRHSESSGQTHLEGDTVQIIC [G5R] | 1.82 |
| FVENAHSESSGQTHLEGDTVQIIC [G5A] | 2.77 |
| FVENPHSESSGQTHLEGDTVQIIC [G5P] | 2.27 |
| FVENYHSESSGQTHLEGDTVQIIC [G5Y] | 3.09 |
| FVENDHSESSGQTHLEGDTVQIIC [G5D] | 3.64 |
| FVENLHSESSGQTHLEGDTVQIIC [G5L] | 2.77 |
| FVENCHSESSGQTHLEGDTVQIIC [G5C] | 2.03 |
| FVENQHSESSGQTHLEGDTVQIIC [G5Q] | 2.57 |
| FVENVHSESSGQTHLEGDTVQIIC [G5V] | 2.87 |
| FVENNHSESSGQTHLEGDTVQIIC [G5N] | 3.23 |

| Variant | protein stability index |
| --- | --- |
| FVENSHSESSGQTHLEGDTVQIIC [G5S] | 3.01 |
| FWENGHSESSGQTHLEGDTVQIIC [V2W] | 3.35 |
| FGENGHSESSGQTHLEGDTVQIIC [V2G] | 3.62 |
| FCENGHSESSGQTHLEGDTVQIIC [V2C] | 4 |
| FNENGHSESSGQTHLEGDTVQIIC [V2N] | 4.16 |
| FRENGHSESSGQTHLEGDTVQIIC [V2R] | 3.96 |
| FYENGHSESSGQTHLEGDTVQIIC [V2Y] | 3.44 |
| FSENGHSESSGQTHLEGDTVQIIC [V2S] | 4.18 |
| FKENGHSESSGQTHLEGDTVQIIC [V2K] | 4.01 |
| FHENGHSESSGQTHLEGDTVQIIC [V2H] | 3.82 |
| FAENGHSESSGQTHLEGDTVQIIC [V2A] | 4 |
| FEENGHSESSGQTHLEGDTVQIIC [V2E] | 4.54 |
| FFENGHSESSGQTHLEGDTVQIIC [V2F] | 3.62 |
| FIENGHSESSGQTHLEGDTVQIIC [V2I] | 3.72 |
| FDENGHSESSGQTHLEGDTVQIIC [V2D] | 4.19 |
| FLENGHSESSGQTHLEGDTVQIIC [V2L] | 3.59 |
| FTENGHSESSGQTHLEGDTVQIIC [V2T] | 3.94 |
| FMENGHSESSGQTHLEGDTVQIIC [V2M] | 3.12 |
| FPENGHSESSGQTHLEGDTVQIIC [V2P] | 3.88 |
| FQENGHSESSGQTHLEGDTVQIIC [V2Q] | 3.81 |
| FVEVGHSESSGQTHLEGDTVQIIC [N4V] | 2.18 |
| FVETGHSESSGQTHLEGDTVQIIC [N4T] | 2.51 |
| FVEPGHSESSGQTHLEGDTVQIIC [N4P] | 2.53 |
| FVERGHSESSGQTHLEGDTVQIIC [N4R] | 2.05 |

| Variant | protein stability index |
| --- | --- |
| FVEYGHSESSGQTHLEGDTVQIIC [N4Y] | 2.37 |
| FVEAGHSESSGQTHLEGDTVQIIC [N4A] | 2.42 |
| FVEWGHSESSGQTHLEGDTVQIIC [N4W] | 2.8 |
| FVEGGHSESSGQTHLEGDTVQIIC [N4G] | 2.59 |
| FVEFGHSESSGQTHLEGDTVQIIC [N4F] | 1.83 |
| FVEQGHSESSGQTHLEGDTVQIIC [N4Q] | 2.81 |
| FVEKGHSESSGQTHLEGDTVQIIC [N4K] | 3.03 |
| FVELGHSESSGQTHLEGDTVQIIC [N4L] | 1.76 |
| FVEHGHSESSGQTHLEGDTVQIIC [N4H] | 2.62 |
| FVEIGHSESSGQTHLEGDTVQIIC [N4I] | 2.13 |
| FVEDGHSESSGQTHLEGDTVQIIC [N4D] | 3.92 |
| FVESGHSESSGQTHLEGDTVQIIC [N4S] | 2.4 |
| FVECGHSESSGQTHLEGDTVQIIC [N4C] | 1.98 |
| FVEMGHSESSGQTHLEGDTVQIIC [N4M] | 1.8 |
| FVEEGHSESSGQTHLEGDTVQIIC [N4E] | 3.47 |
| YVENGHSESSGQTHLEGDTVQIIC [F1Y] | 2.69 |
| WVENGHSESSGQTHLEGDTVQIIC [F1W] | 3.86 |
| VVENGHSESSGQTHLEGDTVQIIC [F1V] | 3.92 |
| QVENGHSESSGQTHLEGDTVQIIC [F1Q] | 4.37 |
| SVENGHSESSGQTHLEGDTVQIIC [F1S] | 4.14 |
| RVENGHSESSGQTHLEGDTVQIIC [F1R] | 3.83 |
| TVENGHSESSGQTHLEGDTVQIIC [F1T] | 3.96 |
